The target of this test is T1, H. polygyrus Alarmin Release Inhibitor (HpARI), recombinant mature 6-His and Myc-tagged protein (Heligmosomoides polygyrus).
T1 chain: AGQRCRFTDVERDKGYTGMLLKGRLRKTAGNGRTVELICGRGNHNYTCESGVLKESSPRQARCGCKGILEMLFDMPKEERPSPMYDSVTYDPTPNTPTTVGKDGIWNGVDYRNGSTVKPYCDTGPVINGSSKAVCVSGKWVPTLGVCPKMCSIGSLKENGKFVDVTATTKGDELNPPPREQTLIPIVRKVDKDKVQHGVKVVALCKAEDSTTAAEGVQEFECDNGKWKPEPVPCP
Kind of test: SPR; 25°C.

B1: recombinant human IL-33, untreated (reduced, active form) (ligand)
chain: MKPKMKYSTNKISTAKWKNTASKALCFKLGKSQQKAKEVCPMYFMKLRSGLMIKKEACYFRRETTKRPSLKTGRKHKRHLVLAACQQQSTVECFAFGISGVQKYTRALHDSSITGISPITEYLASLSTYNDQSITFALEDESYEIYVEDLKKDEKKDKVLLSYYESQHPSNESGDGVDGKMLMVTLSPTKDFWLHANNKEHSVELHKCEKPLPDQAFFVLHNMHSNCVSFECKTDPGVFIGVKDNHLALIKVDSSENLCTENILFKLSET
As to B1, the koff was 0.004 s⁻¹.

B2: recombinant murine IL-33, untreated (reduced, active form) (ligand)
chain: SIQGTSLLTQSPASLSTYNDQSVSFVLENGCYVINVDDSGKDQEQDQVLLRYYESPCPASQSGDGVDGKKLMVNMSPIKDTDIWLHANDKDYSVELQRGDVSPPEQAFFVLHKKSSDFVSFECKNLPGTYIGVKDNQLALVEEKDESCNNIMFKLSKI
modifications: reduced (free cysteines, no disulfides), active form; limits not given, taken as the usual commercial mature mouse IL-33 (Ser109-Ile266, UniProt chain 109-266)
B2: the koff is 0.00014 s⁻¹.

Values taken from PMC5655542 (2017).
